# Results published in article doi:10.1101/2025.06.22.660944, “Structures of MmpL complexes reveal the assembly and mechanism of this family of transporters” (bioRxiv, 2025).
# T1: MmpL5 transporter (M. smegmatis, MSMEG_1382) (M. smegmatis, UniProt A0QS80 1-967)
# T1 construct: MmpL5, M. smegmatis, gene MSMEG_1382; 12 transmembrane helices and periplasmic subdomains PD1-PD3 (PD3 residues 499-684); Seen as a monomer (one chain per AcpM-MmpL5 unit in 2D arrays) and as a homotrimer (in AcpM-MmpL5-MmpS5 and trimeric AcpM-MmpL5) in the same sample; copies therefore left empty; also called mycobacterial membrane protein large 5; source: M. smegmatis MC2-155, co-expressed with …
# T1 sequence (looked up): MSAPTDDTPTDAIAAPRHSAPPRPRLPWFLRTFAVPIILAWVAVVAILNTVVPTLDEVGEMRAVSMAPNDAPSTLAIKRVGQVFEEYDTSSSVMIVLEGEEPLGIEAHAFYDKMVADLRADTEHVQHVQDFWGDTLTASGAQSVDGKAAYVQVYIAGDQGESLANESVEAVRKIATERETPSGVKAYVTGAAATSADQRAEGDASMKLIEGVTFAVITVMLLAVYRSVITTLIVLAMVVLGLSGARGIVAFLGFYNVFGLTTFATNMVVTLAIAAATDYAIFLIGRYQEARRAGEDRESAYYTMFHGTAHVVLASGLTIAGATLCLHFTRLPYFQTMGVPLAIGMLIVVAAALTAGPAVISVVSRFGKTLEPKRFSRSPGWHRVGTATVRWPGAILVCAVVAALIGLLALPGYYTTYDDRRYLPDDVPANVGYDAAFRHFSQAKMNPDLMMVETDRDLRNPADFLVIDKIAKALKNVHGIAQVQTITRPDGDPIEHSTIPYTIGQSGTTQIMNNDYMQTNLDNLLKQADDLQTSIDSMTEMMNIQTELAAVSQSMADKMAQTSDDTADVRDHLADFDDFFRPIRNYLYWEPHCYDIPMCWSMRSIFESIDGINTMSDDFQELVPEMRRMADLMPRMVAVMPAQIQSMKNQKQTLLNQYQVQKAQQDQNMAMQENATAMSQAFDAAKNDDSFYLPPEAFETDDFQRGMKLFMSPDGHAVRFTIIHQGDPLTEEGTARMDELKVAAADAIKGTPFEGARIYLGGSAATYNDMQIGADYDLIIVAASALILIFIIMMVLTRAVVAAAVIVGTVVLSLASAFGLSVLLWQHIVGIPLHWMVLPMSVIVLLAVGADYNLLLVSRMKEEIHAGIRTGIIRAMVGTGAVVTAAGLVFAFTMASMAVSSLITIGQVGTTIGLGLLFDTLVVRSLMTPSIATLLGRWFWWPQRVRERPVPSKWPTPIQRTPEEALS
# B1: meromycolate extension acyl carrier protein M (AcpM) (natural protein, UniProt A0R0B3 1-99, looked up)
# chain: MAATQEEIIAGLAEIIEEVTGIEPSEVTPEKSFVDDLDIDSLSMVEIAVQTEDKYGVKIPDEDLAGLRTVGDVVAYIQKLEEENPEAAAALREKFAADQ
# notes: AcpM, meromycolate extension acyl carrier protein M, of the M. smegmatis host; identified from the cryo-EM map (manual building, DeepTracer) and confirmed by proteomics; Not overexpressed; came along with MmpL5 from the host cells; source: endogenous, M. smegmatis MC2-155; found in the detergent-solubilized crude membranes enriched by sucrose cushion centrifugation
# Experiments:
# [1] = biological target: MmpL5 transporter (M. smegmatis, MSMEG_1382) (M. smegmatis) (UniProt A0QS80); experiment: cryo-EM structure; particle class 3: dipartite AcpM-MmpL5 trimeric complex, 3.37 Å; same LMNG-solubilized crude membrane sample, Build and Retrieve processing
# [2] = biological target: MmpL5 transporter (M. smegmatis, MSMEG_1382) (M. smegmatis) (UniProt A0QS80); experiment: cryo-EM structure; particle class 2: tripartite AcpM-MmpL5-MmpS5 trimeric complex, 2.81 Å; same LMNG-solubilized crude membrane sample, Build and Retrieve processing
# [3] = biological target: T1, MmpL5 transporter (M. smegmatis, …); experiment: cryo-EM structure; particle class 1: AcpM-MmpL5 monomeric units in 2D arrays, 3.35 Å; LMNG-solubilized crude M. smegmatis membranes enriched by sucrose cushion, Build and Retrieve processing; conditions: partners not purified
# [4] = biological target: T1, MmpL5 transporter (M. smegmatis, …); experiment: cryo-EM structure; particle class 2: tripartite AcpM-MmpL5-MmpS5 trimeric complex, 2.81 Å; same LMNG-solubilized crude membrane sample, Build and Retrieve processing; conditions: partners not purified
molecule,measurement,setting,value
"MmpL5 transporter (M. smegmatis, MSMEG_1382) (from UniProt A0QS80 1-967) (natural protein)",stoichiometry N,[1],3
same,stoichiometry N,[2],3
"MmpS5 adaptor (M. smegmatis, MSMEG_1381) (natural protein)",stoichiometry N (MmpS5 per MmpL5 (3:3)),[2],1
B1,stoichiometry N,[3],1 AcpM per MmpL5 (1:1)
same,stoichiometry N,[4],1 AcpM per MmpL5 (3:3)
